Measurements taken from the supplement of paper PMC9170038.

Test system: MS2 coat protein
Test: apparent KD of MS2 coat protein; designed switch direction (-1 OFF switch, 1 ON switch): 1; higher = weaker reporter binding
Summary of the method: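 On Illumina chips, designed RNA switches with common flanks were made by stalled E. coli RNA polymerase. Titrations with SNAP-549-labelled MS2 coat protein, doubling from 0.7 or 1.5 nM to 3 µM, were done with no input, with 200 uM small-molecule ligand, or with an oligonucleotide input. Apparent KD is the median per design over clusters, from curve fits of normalised cluster fluorescence.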

[1] = input ligand: microRNA oligo, concentration not stated
[2] = Eterna round: R95, input ligand: FMN 200 uM
[3] = Eterna round: R95, input ligand: microRNA oligo, concentration not stated
[4] = Eterna round: R95, input ligand: none

| Sequence | apparent KD of MS2 coat protein (input ligand: FMN 200 uM) [nM] | apparent KD of MS2 coat protein [1] [nM] | apparent KD of MS2 coat protein (input ligand: none) [nM] | apparent KD of MS2 coat protein [2] [nM] | apparent KD of MS2 coat protein [3] [nM] | apparent KD of MS2 coat protein [4] [nM] |
| --- | --- | --- | --- | --- | --- | --- |
| UACUUAGUGGUAGGAUAUGUAGGAUAUGGCGAGAGCUAAGCUUGGAAGUCACUUCAGCCAGAAGGACAGAAGGACCACUCUCUC [pwkr ssNG2 2FMN + F9.12] (Eterna round: R96, puzzle: Same State NG 2) | 98 | 17.4 | 97.1 | – | – | – |
| UAGAGAGGAAGCGAGGAUAUCGUGUGAGGUACAUGAGGAUCACCCAUGUUUGAUGUUGAGAGAGGCGAGAAGGCGCAGGAGAUUA [JR_SS2_Sub084] (puzzle: Same State 2) | – | – | – | 34.1 | 26.6 | 35.6 |
| UAGAGAGGAAGCGAGGAUAUCGUGUUAGGUACAUGAGGAUCACCCAUGUUUUAGGUAGAGGUAGGCGAGAAGGCGCAGGAGAAGA [JR_SS2_Sub090] (puzzle: Same State 2) | – | – | – | 25.8 | 32.9 | 34 |
| UAGCGCUGUCGAGAGGAUAUGCGGUGAUGGACAUGAGGAUCACCCAUGUUAGCGAUAGCAUUACGGUAGAAGGCUCUACAGCUGU [salish99_ss2_r3_093] (Eterna round: R96, puzzle: Same State 2) | 38.2 | 342 | 694 | – | – | – |
| UAGCGCUGUCGAGAGGAUAUGCGGUGAUGGACAUGAGGAUCACCCAUGUUAGCGAUAGCAUUACGGUAGAAGGCUCUACAGCUGU [salish99_ss2_r3_093] (puzzle: Same State 2) | – | – | – | – | 177 | – |
| UAGGAUCAACGAGGAUAUAAUAGGUUCUAUUCGUGAUAUUGCGUACAUGAGGAUCACCCAUGUUAUUAGAAGGCGUAUGGGUUU [JR_SSNG2_Sub085] (Eterna round: R96, puzzle: Same State NG 2) | 78.7 | 69.9 | 92.8 | – | – | – |
| UAGUGCGUUAGAGGAUAUUCUAAAAUAAAAUAAAAGACAUGAGGAUCACCCAUGUAUGUACAUGGGAAGAAGGCUGAUGUGCUA [Omei SS(NG)2 Bv1] (Eterna round: R96, puzzle: Same State NG 2) | – | 296 | – | – | – | – |
| UAGUUGGUGGUAGGAUAUGUAGGAUAUGGCGAGAGCUAAGCUUGGAAGUCACUUCAGCCAGAAGGACAGAAGGACCAGUAGCUU [pwkr ssNG2 2FMN + F9.10] (Eterna round: R96, puzzle: Same State NG 2) | 105 | 24.2 | 79.1 | – | – | – |
| UAUAUUAUGGUAGGAUAUCUAGGAUAUGGGAAGAGCUAAGCUUGGAAGUCACUUCACCCAGAAGGAGAGAAGGACCAUAAUAUU [pwkr ssNG2 2FMN + F9.5] (Eterna round: R96, puzzle: Same State NG 2) | 105 | 240 | 76.7 | – | – | – |
| UAUCCAUAGAUAGGAUAUUAGUGAACAUGAGGAUCACCCAUGUUUUGCUUGGUUUUAAGUUAAUCUGAGAAGGAUCUUGAUGAA [SameState NG2 #5] (Eterna round: R96, puzzle: Same State NG 2) | 20.3 | 14.6 | 20.4 | – | – | – |
| UAUCUCAUGUAAGGAUAUGCAGCCGUUUCGGCUGCAGAAGGUACUAUAAUACAUGAGGAUCACCCAUGUCUCUAUUAUUUAGUU [JL SSNG1 1.45] (Eterna round: R96, puzzle: Same State NG 1) | 57.6 | 45.7 | 63.8 | – | – | – |
| UAUGAACAUGAGGAUCACCCAUGUGGAAAGGACACAGGAUAUCAUCUCGCACGUGCGAUAUGAGAAGGGUGAUGGU [Quedorinri] (puzzle: Same State 1) | – | – | – | – | 96.3 | – |
| UAUUUAAUCGUAGGAUAUAGAGUGAAAUUUGUACUAGAAGGACGUAACAUGAGGAUCACCCAUGUGGUAAGUGGGACAUAGUAU [JR_SSNG1_Sub037] (Eterna round: R96, puzzle: Same State NG 1) | 44.1 | 27 | 39.7 | – | – | – |
| UCAAGCGUUUGGCUCGUUUUAUGUGUUGAACAUGAGGAUCACCCAUGUAUUGUACGAUCCAGUUAGAUGGUAUUUUG [JR_SHM208A_Sub040] (puzzle: Sensor for hsa-mir-208a) | – | – | – | 46.9 | 104 | 67.6 |
| UCUUAUAAUAAUAUAAUUCAUUUGAUAAAACAUGAGGAUCACCCAUGUCCUACUUUUUUUAAUCAUUUUAACUUUAA [The 7 c's] (puzzle: Sensor for hsa-mir-208a) | – | – | – | 45.3 | 62.6 | 63.5 |
| UCUUGGUUUUUGCUCGUUUUUUGUGUUGAACAUGAGGAUCACCCAUGUAUUAUACGGUCCGGUUUAAUAAUAAUCCG [JMF 81] (puzzle: Sensor for hsa-mir-208a) | – | – | – | 24.2 | 14.6 | 27.3 |

| Sequence | apparent KD of MS2 coat protein (input ligand: FMN 200 uM) [nM] | apparent KD of MS2 coat protein [1] [nM] | apparent KD of MS2 coat protein (input ligand: none) [nM] | apparent KD of MS2 coat protein [2] [nM] | apparent KD of MS2 coat protein [3] [nM] | apparent KD of MS2 coat protein [4] [nM] |
| --- | --- | --- | --- | --- | --- | --- |
| UCUUGGUUUUUGCUCGUUUUUUGUGUUGAACAUGAGGAUCACCCAUGUAUUAUACGGUCCGGUUUAGUAGUGGUCCG [JMF 79] (puzzle: Sensor for hsa-mir-208a) | – | – | – | 28.2 | 16 | 31.1 |
| UCUUGGUUUUUGCUCGUUUUUUGUGUUGAACAUGAGGAUCACCCAUGUAUUGUACAGUCCAGUUUAAUAAUGGUCCG [JMF 55] (puzzle: Sensor for hsa-mir-208a) | – | – | – | 36.9 | 25.6 | 38.1 |
| UCUUGGUUUUUGCUCGUUUUUUGUGUUGAACAUGAGGAUCACCCAUGUAUUGUACGGUCCAAUUUAAUAAUAGUCCG [JMF 65] (puzzle: Sensor for hsa-mir-208a) | – | – | – | 26.6 | 19.7 | 32.4 |
| UCUUGGUUUUUGCUCGUUUUUUGUGUUGAACAUGAGGAUCACCCAUGUAUUGUACGGUCCAGUUUGAUAAUGGUCCG [JMF 34] (Eterna round: R96, puzzle: Sensor for hsa-mir-208a) | 35.2 | 13.3 | 40.2 | – | – | – |
| UCUUGGUUUUUGCUCGUUUUUUGUGUUGAACAUGAGGAUCACCCAUGUAUUGUACGGUCCAGUUUGAUAAUGGUCCG [JMF 34] (puzzle: Sensor for hsa-mir-208a) | – | – | – | 25.6 | 14.3 | 27.3 |
| UCUUGGUUUUUGCUCGUUUUUUGUGUUGAACAUGAGGAUCACCCAUGUAUUGUACGGUCCGGUUUGAUAAUGGUCCG [JMF 13] (puzzle: Sensor for hsa-mir-208a) | – | – | – | 26 | 15.5 | 27.1 |
| UCUUGGUUUUUGCUCGUUUUUUGUGUUGAACAUGAGGAUCACCCAUGUAUUGUACGGUCCGGUUUGAUAGUGGUCCA [JMF 45] (puzzle: Sensor for hsa-mir-208a) | – | – | – | 111 | 71.6 | 120 |
| UGAACCUUCACAGGAUAUCAUGCGAAAAUUGCGUGAGAAGGGUGGAUGUGGUGUUCAAAGAUGCACAUGAGGAUCACCCAUGUA [SameState NG1 #48] (Eterna round: R96, puzzle: Same State NG 1) | 106 | 166 | 203 | – | – | – |
| UGAAUAUCUACAGGAUAUGAGUUGUAUAGUGGAUCAGAAGGGUGGGUGUUUUGCACGGUGUGUUACAUGAGGAUCACCCAUGUU [SameState NG1 #25] (Eterna round: R96, puzzle: Same State NG 1) | 302 | 139 | 324 | – | – | – |
| UGCAUACGCCUACAAGAGGAGUCCUGCAGACAUGAGGAUCACCCAUGUAACUCGAAUUCAGUUCGUUCGUCUGUCGU [JR_hsamir208a_Sub1412] (Eterna round: R96, puzzle: Sensor for hsa-mir-208a) | 57 | 33.9 | 52.9 | – | – | – |
| UGCCUGAGUCGAGGAUAUUAUGGAUCAAUUAAUACAUGAGGAUCACCCAUGUAAUUAAUUUAACAUGAGAAGGCGACUCAGGCU [SSNG2/10-A3] (Eterna round: R96, puzzle: Same State NG 2) | – | 7.93 | – | – | – | – |
| UGGAUCUAGGCUUGCCUGGGUCCAUGCUGACAUGAGGAUCACCCAUGUGCAUCCUACAAGCUUUUUGCUUGUCAGUU (Eterna round: R96, puzzle: Sensor for hsa-mir-208a) | 575 | 330 | 289 | – | – | – |
| UGGAUCUAGGCUUGCCUGGGUCCAUGCUGACAUGAGGAUCACCCAUGUGCAUCCUACAAGCUUUUUGCUUGUCAGUU (puzzle: Sensor for hsa-mir-208a) | – | – | – | 232 | 166 | 135 |
| UGGCUCAGACGAGGAUAUAUGUGGUCACAUGAGGAUCACCCAUGUCUCGAGCUUCGGCUCGAGGCAUAGAAGGCGUCUGAGCCA [SSNG2/5-A2] (Eterna round: R96, puzzle: Same State NG 2) | 1300 | 50.8 | 632 | – | – | – |
| UGGCUGGUGCUAGGAUAUGCAUGAGGCCUCCUCGUAGAAGGAGCACGACAUGAGGAUCACCCAUGUGGCCGUCCGUGGGCGGCU [salish99_SSNG1_r04_015] (Eterna round: R96, puzzle: Same State NG 1) | 68 | 44.8 | 60.1 | – | – | – |
| UGGUAACAUGAGGAUCACCCAUGUCAAAUGAAUCGAGGAUAUGGGAAGGAAGAAGAGAAACUAGAAGGCGAAGUUG [Altered State 1-5 - Jieux - Same State 1] (puzzle: Same State 1) | – | – | – | 89 | 101 | 127 |
